Numbering of substitutions follows the chain as printed.
T1: recombinant human IL-23 (hrIL-23), produced at Centocor (human, UniProt P29460 23-328)
T1 sequence 1: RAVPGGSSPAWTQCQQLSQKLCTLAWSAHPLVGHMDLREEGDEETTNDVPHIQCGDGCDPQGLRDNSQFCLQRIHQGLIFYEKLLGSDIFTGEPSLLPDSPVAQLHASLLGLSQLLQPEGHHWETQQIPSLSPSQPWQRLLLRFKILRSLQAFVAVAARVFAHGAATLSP
T1 sequence 2: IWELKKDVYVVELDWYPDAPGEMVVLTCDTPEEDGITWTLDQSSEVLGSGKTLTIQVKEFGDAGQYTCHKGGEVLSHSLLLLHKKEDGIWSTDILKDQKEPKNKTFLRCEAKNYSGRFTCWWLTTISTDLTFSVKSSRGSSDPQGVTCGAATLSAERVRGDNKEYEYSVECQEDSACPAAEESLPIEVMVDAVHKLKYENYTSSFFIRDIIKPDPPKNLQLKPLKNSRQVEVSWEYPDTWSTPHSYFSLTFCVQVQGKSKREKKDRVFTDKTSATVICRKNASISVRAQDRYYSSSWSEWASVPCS

B1: MOR05051 mAb (antibody, human IgG1, V domains shown)
VH: QVELVESGGGLVQPGGSLRLSCAASGFTFSSFGMSWVRQAPGKGLEWVSQIEHKYLSYTTLYAASVKGRFTISRDNSKNTLYLQMNSLRAEDTAVYYCARYWGTPYLMQFDNWGQGTLVTVSS
VL: DIALTQPASVSGSPGQSITISCTGTSSDVGGYNSVSWYQQHPGKAPKLMIYSVSSRPSGVSNRFSGSKSGNTASLTISGLQAEDEADYYCSSYDTNKPLVVFGGGTKLTVL
B2: MOR05056 mAb (antibody, human IgG1, V domains shown)
VH: B1 VH with Q50S, T59A, L61Y, S65G
VL: B1 VL
B3: MOR05055 mAb (antibody, human IgG1, V domains shown)
VH: B1 VH with Q50N, S57G, T59A, L61V
VL: B1 VL
B4: MOR05039 mAb (antibody, human IgG1, V domains shown)
VH: B1 VH with Q50N, S57N, T59A, L61Y
VL: B1 VL
B5: MOR05028 mAb (antibody, human IgG1, V domains shown)
VH: QVELVQSGAEVKKPGSSVKVSCKASGGTFSNYAISWVRQAPGQGLEWMGGIIPVFGFTHYAQKFQGRVTITADESTSTAYMELSSLRSEDTAVYYCARDIYAGMDVWGQGTLVTVSS
VL: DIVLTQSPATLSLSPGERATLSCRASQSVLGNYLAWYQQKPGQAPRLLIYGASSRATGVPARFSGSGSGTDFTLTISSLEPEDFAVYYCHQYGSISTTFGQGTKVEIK
B6: MOR05038 mAb (antibody, human IgG1, V domains shown)
VH: QVELVQSGAEVKKPGSSVKVSCKASGGTFSSNYISWVRQAPGQGLEWMGINAHLGGTWYAQKFQGRVTITADESTSTAYMELSSLRSEDTAVYYCARSKKGMYGGWTYPLMMFDLWGQGTLVTVSS
VL: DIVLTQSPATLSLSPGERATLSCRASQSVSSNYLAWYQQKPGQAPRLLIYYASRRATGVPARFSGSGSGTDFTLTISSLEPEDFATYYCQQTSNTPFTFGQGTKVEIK
B7: MOR05046 mAb (antibody, human IgG1, V domains shown)
VH: QVELVQSGAEVKKPGESLKISCKGSGYSFSNYWIGWVRQMPGKGLEWMGIIDPVSSWTKYSPSFQGQVTISADKSISTAYLQWSSLKASDTAMYYCARWYYKPFDVWGQGTLVTVSS
VL: DIVLTQPPSVSGAPGQRVTISCTGSSSNIGSGYDVHWYQQLPGTAPKLLIYGNSKRPSGVPDRFSGSKSGTSASLAITGLQSEDEADYYCSSWTPSSVVFGGGTKLTVL
B8: MOR05029 mAb (antibody, human IgG1, V domains shown)
VH: QVELVQSGAEVKKPGSSVKVSCKASGGTFSSNYISWVRQAPGQGLEWMGGIIPIFGHANYAQKFQGRVTITADESTSTAYMELSSLRSEDTAVYYCARSKKGMYGGWTYPLMMFDLWGQGTLVTVSS
VL: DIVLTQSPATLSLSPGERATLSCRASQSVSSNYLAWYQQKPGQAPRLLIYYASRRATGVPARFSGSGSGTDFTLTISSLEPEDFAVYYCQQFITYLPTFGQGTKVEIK
B9: MOR05032 mAb (antibody, human IgG1, V domains shown)
VH: B8 VH
VL: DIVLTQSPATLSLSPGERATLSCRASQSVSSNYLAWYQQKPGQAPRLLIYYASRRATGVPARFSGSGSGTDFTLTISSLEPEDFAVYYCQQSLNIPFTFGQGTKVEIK
B10: MOR05030 mAb (antibody, human IgG1, V domains shown)
VH: B8 VH
VL: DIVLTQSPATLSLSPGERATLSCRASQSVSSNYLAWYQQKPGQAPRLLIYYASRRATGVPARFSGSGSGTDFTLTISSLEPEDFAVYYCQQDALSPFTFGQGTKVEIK
B11: MOR05034 mAb (antibody, human IgG1, V domains shown)
VH: B8 VH with G50L, I52D, I54N, H57G, N59Y
VL: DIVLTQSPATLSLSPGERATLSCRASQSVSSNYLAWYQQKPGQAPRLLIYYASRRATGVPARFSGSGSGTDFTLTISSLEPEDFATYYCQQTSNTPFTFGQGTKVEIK
B12: MOR05036 mAb (antibody, human IgG1, V domains shown)
VH: B8 VH with G50L, I52D, I54V, H57G, N59Y
VL: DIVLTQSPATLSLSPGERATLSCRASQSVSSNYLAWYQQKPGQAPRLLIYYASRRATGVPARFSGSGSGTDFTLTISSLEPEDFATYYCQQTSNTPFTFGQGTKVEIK

Target: T1, recombinant human IL-23 (hrIL-23), …
Test: cell-based or functional assay

| Binder | IC50, inhibition of IL-17 production [µg/mL] |
| --- | --- |
| B1 | 0.0663 |
| B2 | 0.092 |
| B3 | 0.0916 |
| B4 | 0.161 |
| B5 | 0.104 |
| B6 | 0.0282 |
| B7 | 0.0428 |
| B8 | 0.0491 |
| B9 | 0.172 |
| B10 | 0.0646 |
| B11 | 0.185 |
| B12 | 0.17 |
